Test results taken from the supplement of paper PMC9170038.

Tested on: MS2 coat protein
Assay: apparent KD of MS2 coat protein; higher = weaker reporter binding
Settings: Eterna round: R107
Procedure, shortened: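 Illumina sequencing clusters served as templates for on-chip transcription of the designed RNA switches. SNAP-549-labelled MS2 coat protein was then titrated in twofold steps from 0.7 or 1.5 nM to 3 µM, allowing 0.8–1.5 h per step at first and 10–20 min per step later. The buffer held 100 mM Tris-HCl pH 7.5, 80 mM KCl and 4 mM MgCl2, without or with constant ligand. Apparent KD is the median per design of normalised cluster binding-curve fits.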

[1] = input ligand: theophylline 20 uM
[2] = input ligand: theophylline 2 mM
[3] = input ligand: tryptophan 2.4 mM

Sequence	apparent KD of MS2 coat protein (input ligand: arginine 13.2 mM) [µM]	apparent KD of MS2 coat protein (input ligand: none) [µM]	apparent KD of MS2 coat protein [1] [µM]	apparent KD of MS2 coat protein [2] [µM]	apparent KD of MS2 coat protein [3] [µM]
AGUAGACACGCGGCCGCCACUUGAGGAUCACCCAAGUGGUGUGUACUUGAAAACAAGUGCACAUCAAGGACCGGGCGUGUCUACA [Omei Tryp B SS D v3]	0.00719	0.00705	0.00801	0.00712	0.00854
UACUUGCUGACGGCCGCCACUAGAACAUGAGGAUCACCCAUGUACCUGGUCCUUCAUGGGUGGACUAGGACCGGGUCAGCAAGAU [(Trp1)-(Ms2)-(T)'-(M)'-(Trp2)_Design4]	0.186		0.418	0.517	
UAAUCCGGUCCUCGAUAGGUGAUCCUCUAACGAGGACCGGUACGGCCGCCACUCGAUAACAUGAGGAUCACCCAUGUAAUAAUAA [|T'-M'-Trp-Ms2|_Design16]	0.033		0.0419	0.0451	
GGUAUGUAUUCGGAAACGAAUGCAUACCAACGAGGACCGGUACGGCCGCCACUCGGGCGGCGAUCACAUGAGGAUCACCCAUGUA [Ex Tryptophan A 2]	0.028		0.0453	0.0566	
GCCCUGCGCCCGGGACCGGCAAGAUCCAUGCGAGGACCGGUACGGCCGCCACUCGCAGACGUACAUGAGGAUCACCCAUGUCCUC [theeternabot_exclusion_MS2_Trp_A_24]	0.14		0.838	0.867	
UACAUGAGGAUCACCCAUGUAUGUAUCGAAGGAGCGCGUGUAAACGCAGGUAGGUCGCGAACAUGAGGAUCACACAUGAGGAUCA [Same State Arginine A]	0.0209		0.0311	0.0375	0.0293
UGUAACAUGAGGAUCACCCAUGUAAGUGAUACCAGAUAAGUAGUAGUCCCUUGGCAGCAUAUUGGGCGAGUGUAUAGUCUAUACG [Same State - Theophylline A (Freestyle 7)]	0.0399		0.0698		0.0497
UUUGAUAGGACAGAUACCAGCGUGUUGUUGAACAUGAGGAUCACCCAUGUAGUGAUCGAGCGCCCUUGGCAGCUGGUUUGUUAGG [7.O]	0.102		0.433		0.307
AAGGUGAUCCCAGAUACCAGCUUAACAUGAGGAUCACCCAUGUAUGGGACGAAAGUCCCGGGCCCUUGGCAGCUGGGUUGCCAAG [SSTheo B #16]	0.0436	0.224	0.427	0.0649	0.17
GCACCAGGUACGGAUACCAGAGCAAGCCAAAUGAGUGAACAUGAGGAUCACCCAUGUUUGCUCCCUUGGCAGCCGUACCUGGUGC [ETB NP+V+V2 #11 +-Same Structure]	0.00791		0.0122		0.00935
UAUCGUCAGACGGCCGCCACUAGAACAUGAGGAUCACCCAUGUAGGUCCUAGAUUCCUCAAUAACUAGGACCGGGUCUGACGAAU [(Trp1)-(Ms2)-(T)'-(M)'-(Trp2)_Design14]	0.0818		0.137	0.224	
GACAGACGAGGAAGGAGCGACAUGAGGAUCACCCAUGUUGCGGGUUUAAGGUGAACUAAGUGUCAGGUAGGUCGCCUCGCUUUUA [Diatbeat]	0.0357	0.0412	0.0565	0.0493	0.0363
AAUAUAUAGACGGCCGCCACUGGAACCAAUACAUGAGGAUCACCCAUGUGAAAAGGAUAGGUUCACAGGACCGGGUCUUCAUGUA [SS Tryp B Tesla 1.3]	0.0405		0.0331	0.061	
AGCGCGGUGAUGGUAGCCGGACGCUAGGUACGAGGACCGGUACGGCCGCCACUCGGAGUCCUACGACAUGAGGAUCACCCAUGUA [Same State Trp A GF16]	0.0612		0.106	0.111	
GCGAACGGACCGUUGCCUUCCUGUGUGCGGCGAGGACCGGUACGGCCGCCACUCGACUGCGUACAUGAGGAUCACCCAUGUUAGA [theeternabot_exclusion_MS2_Trp_A_16]	0.0412		0.0402	0.0318	
CUAAAUAUAUCGGCCGCCACUUACUCAUGAGGUAACAACAUGAGGAUCACCCAUGUUUGAGGAUCAAGGACCGGGAUAUAUUUAG [AstrosSSTryB#16]	0.0261		0.0372	0.0289	
CCUAUCCAGUCGGCCGCCACUGAAAACAGUGGGUGAACAUGAGGAUCACCCAUGUAAUAAUAAAACAGGACCGGGACUGUAUAGG [Ex Tryptophan B 22]	0.29	0.452	0.458	0.882	0.369
ACAUGAGGAUCACCCAUGUGCCGUCUUGAUACCAGACCCGAAGUAGUCCCUUGGCAGCAACUACGUGACGGUCGCGCAUGUGUAG [kaomullin]	0.0163		0.0303		0.0177
AGCCACUCGAGUGAUCCUCACGAGUGGCUACGAGGACCGGUACGGCCGCCACUCGAAUUAACAUGAGGAUCACCCAUGUAAUCUA [Brourdmod07]	0.0225		0.227	0.196	

Sequence	apparent KD of MS2 coat protein (input ligand: arginine 13.2 mM) [µM]	apparent KD of MS2 coat protein (input ligand: none) [µM]	apparent KD of MS2 coat protein [1] [µM]	apparent KD of MS2 coat protein [2] [µM]	apparent KD of MS2 coat protein [3] [µM]
AAAGCCUUGCCCGGUGUUCCGAAAGUGGAAGGAGCGCACAUUGGUGCAGGUAGGUCGCCACAUGAGGAUCACCCAUGUCUAGGCU [Isbeat]	0.0425	0.0341	0.107	0.135	0.0113
AACAUGAGGAUCACCCAUGUCCUCGUGUUCCGAGGACCGGUACGGCCGCCACUCGGUCCUCGCGAGGAUGGUCAAAGACUAUCCA [Omei Trp A SS B v3]	0.724		0.378	0.953	
UGUAUGUGAUCUGAUACCAGAGUUGAUAACCUGAGGAUCACCCUGGUAAGGCGAAAGCCACUCCCUUGGCAGCAGAUCGCAUACU	0.131	0.0861	0.0674	0.0183	0.101
AAUCAUGAAAACAUGACAUGAGGAUCACUCCGAGGACCGGUACGGCCGCCACUCGCGAGGAGGCGGACAUGAGGAUCACCCAUGU [#02 Tryptophan A Same State]	0.0492		0.265	0.421	
AACAUGAGGAUCACCCAUGUGUCCUCGAAACGAGGACCGGUACGGCCGCCACUCGGCGUAUGUUGACGAAAAGUCAGCAUACGCA [Mat - Exclusion - Trytophan A - D11]	0.0818		0.209	0.255	
AUAAUAAAGUCGGCCGCCACUAUAAACAUGAGGAACAUGAGGAUCACCCAUGUAUGAGGAUCACCUAGGACCGGGACAAAUAUUA [AstrosExyTryB#3]	0.0473	0.0573	0.0883	0.0631	0.0547
UGACAUUGCUCAGAUACCAGACAUGAGCAUCAGCCAUGUACCAAGAGUACAUAUUAAAAUGUCCCUUGGCAGCUGAGCAAUGUCU [Mod of Eli's TheoBX5 #AlternateMS2 v1]	0.0152	0.011	0.0187	0.166	0.0118
AACAUGAGGAUCACCCAUGUGUCCUCGAAACGAGGACCGGUACGGCCGCCACUCGACGUAUGUUGACGAAAAGUCAGCAUACGAA [Mat - Exclusion - Trytophan A - D12]	0.112		0.31	0.33	
ACGUCCCGUUUACUCGUGGGUUAGGUCGAUACCAGUAUUCAAACUUACCCUUGGCAGCGACAUGAGGAUCACCCAUGUGCGAAGA [XTheo A #22]	0.019		0.0229		0.0175
AUAACAUGAGGAUCACCCAUGUAAGCAGAUACCAGCUAGGAAACUAGCCCUUGGCAGCUGCAAUCAUGGGUGUGGUAUCUGCUAA [(M1)-(M2)-(T1)-(T2)-(M)'-(T)'_Design5]	0.0215		0.0397		0.0164
CCCAGUCAUAACAAAGGAAAUAUACUCGAAGGAGCGUCAUAGUAGGCAGGUAGGUCGCGAGACAUGAGGAUCACCCAUGUAGAGA [swwvmullin]	0.0215	0.0475	0.072	0.0751	0.0578
UGCUGACAAGGACAUGGAUGAUCAGCUGAUACCAGCCUGGAAACAGGCCCUUGGCAGCAGCACAUGAGGAUCACCCAUGUAAUAA [(T)'-(M)'-(T1)-(T2)-(M1)-(M2)_Design3(Mismatches)]	0.0284		0.0781		0.0272
GAGACAUGAGGAUCACCCAUGUUAGAUGAUACCAGUUAGAGAAGGAGCCCUUGGCAGCGUAAAUCUAGAGCCUAUGACGACAUGU [ss-theoA-1]	0.0162		0.0158		0.0132
AGUAUCAGUGGAAGGAGCGUCGCGACUGCUACAUGAGGAUCACCCAUGUCGCCUUGAGCGCGACAGGUAGGUCGCCACGGUAGGC [SS-ArgB1]	0.0286	0.0496	0.0688	0.0721	0.0403
UCACAUGAGGAUCACCCAUGUGUCAGAGAAGGAGCGGCCGCAAGGCCAGGUAGGUCGCUCGGGUAUUGUGAGGUUCACCCGUGUG [#1 Exclusion - Arginine A Attempt #12 (Inspired by cyborg)]	0.0267	0.0358	0.0573	0.0444	0.0346
CACGCACGAUCGGCCGCCACUCGUGUAGCUUACAUGAGGAUCACCCAUGUAUGUUCAUUCAUAUAGAGGACCGGGAUCGUGCGUG [#05 Same State - Tryptophan B]	0.00909	0.0128	0.0185	0.0121	0.0117
GACAUGAGGAUCACCCAUGUUUGCUAUGAAGGAGCGUCGGAAAUGACAGGUAGGUCGCAUAGUAGACCUUGUAUUUCGUGUGUUU [#01 Exclusion - Arginine A]	0.0108	0.0108	0.0145	0.0112	0.012
ACAUGAGGAUCACCCAUGUAUUGAGCCGAAGGAGCGGCAGGUAUGCCAGGUAGGUCGCGGUUAGAGUAGAUUGAUGUUCUUUUGU [Exclusion - Arginine A / B]	0.0123	0.0127	0.0148	0.0163	0.0124
